# Measurements: patent publication US12269859B2, “Synthetic immune receptors and methods of use thereof” (Angeles Therapeutics, Inc., priority 2016, dated 2025)
# How the values were obtained:
# [1] = test system: target antigen-expressing cell line; test: Jurkat NFAT-GFP assay, coculture with target cell lines expressing the respective target antigen (summary Table 10A); assay type: cell-based, human; set-up: key: The signs +/−, +, 2+ etc. after the name of the cell lines indicate the relative degree of positivity on the Jurkat-NFAT-GFP assay as measured by the % GFP positive cells; +: relative degree of positivity on the Jurkat-NFAT-GFP assay as measured by the % GFP positive cells; 2+: relative degree of positivity on the Jurkat-NFAT-GFP assay as measured by the % GFP positive cells
# In short: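 Jurkat cells carrying an NFAT-driven GFP reporter and lentivirally expressing a SIR were cocultured with antigen-bearing target cells (E:T ~1:2) for about 4–18 h. GFP induction read by flow cytometry as % GFP+ cells, scored positive and graded (+/−, +, 2+) against parental Jurkat-NFAT-GFP cells.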
# RAJI cells = test: Jurkat NFAT-GFP assay, coculture with RAJI cells; assay type: cell-based, human; conditions: overnight co-culture with RAJI cells; Table 10C
# Method: (B) Induction of NFAT promoter driven GFP expression. The control vector- and SIR-expressing Jurkat-NFAT-GFP cocultured for 4-24 hours with the target antigen-expressing cell line (described above) and their ability to bind to the target antigen is assayed by measuring induction of GFP expression using Flow Cytometry. Cellular supernatant is collected and assayed for the induction of cytokines (e.g., IL2).
# Jurkat NFAT-GFP Assay For Synthetic Immune Receptors. The Jurkat-NFAT-GFP cells are engineered in such a way that the IL-2 promoter, which carries NFAT binding sites, is cloned upstream of the GFP gene. These cells have been used to study signaling via TCR and CAR. The different SIRs were stably expressed in Jurkat NFAT-GFP cells by lentiviral mediated gene transfer, followed by selection with puromycin. The SIR-expressing Jurkat-NFAT-GFP cells were cocultured with the target cells at E:T ratio of approximately 1:2 for approximately 4 hours to 18 hours. When the interaction between SIRs and their target antigen results in activation of the NFAT pathway, GFP expression is induced.
# Induction of GFP expression by coculturing of Jurkat-NFAT-GFP cells expressing different SIR constructs and the different target cells was studied essentially as described previously (Wu, Roybal, Puchner, Onuffer, & Lim, 2015). GFP expression was monitored by FACS analysis. […] In panel B, Jurkat cells expressing SIR targeting CDH6 (Clone ID: 051716-J05), CD276 (Clone ID: 050516-Q06) and Her2/neu (Clone ID: 050516-I03) were incubated with SKOV3 (top) and […] (middle and bottom) cells, respectively. […] The Jurkat-NFAT-GFP cells were engineered to express different SIRs targeting other antigens and the experiment repeated upon coculture with the target cells expressing their respective target antigen. The Jurkat-NFAT-GFP (parental) cells were used as control. […] The names of different SIRs, their SEQ ID NOs, component antigen binding domains and TCR chains can be determined by reference to Tables 7A-7H. A SIR is considered positive in the assay in case the SIR expressing Jurkat-NFAT-GFP cells show greater % GFP positive cells when cultured with the target cell line as compared to parental Jurkat-NFAT-GFP cells. […] The signs +/−, +, 2+ etc. after the name of the cell lines indicate the relative degree of positivity on the Jurkat-NFAT-GFP assay as measured by the % GFP positive cells after culture of the SIR expressing Jurkat-NFAT-GFP cells with that cell line.
molecule,measurement,setting,value
"112916-A01 (protein, Polynucleotide encoding a Synthetic Immune Receptor (SIR)) MALPVTALLLPLALLLHAARPDIVMTQTPLSLPVTPGEPASISCRSSRSLLDSDDGNTYLDWYLQKPGQSPQLLIYTLSYRASGVPDRFSGSGSGTDFTLKISRVEAEDVGVYYCMQRVEFPITFGQGTRLEIKRLEGKPIPNPLLGLDSTGSGEDLKNVFPPEVAVFEPSKAEIAHTQKATLVCLATGFYPDHVELSWWVNGKEVHSGVCTDPQPLKEQPALNDSRYCLSSRLRVSATFWQNPRNHFRCQVQFYGLSENDEWTQDRAKPVTQIVSAEAWGRADCGITSASYHQGVLSATILYEILLGKATLYAVLVSALVLMAMVKRKDSRGRAKRSGSGATNFSLLKQAGDVEENPGPTSMDWIWRILFLVGAATGAHSFEQVQLVESGGGVVQPGRSLRLSCAASGFIFSRYGMHWVRQAPGKGLKWVAVIWYDGSNKLYADSVKGRFTISRDNSKNTLYLQMNSLRAEDTAVYYCARDYYDNSRHHWGFDYWGQGTLVTVSSTREQKLISEEDGSGIQNPDPAVYQLRDSKSSDKSVCLFTDFDSQTNVSQSKDSDVYITDKCVLDMRSMDFKSNSAVAWSNKSDFACANAFNNSIIPEDTFFPSSDVPCDVKLVEKSFETDTNLNFQNLSVIGFRILLLKVAGFNLLMTLRLWSSRAKRSGSGVKQTLNFDLLKLAGDVESNPGPSRGHMTEYKPTVRLATRDDVPRAVRTLAAAFADYPATRHTVDPDRHIERVTELQELFLTRVGLDIGKVWVADDGAAVAVWTTPESVEAGAVFAEIGPRMAELSGSRLAAQQQMEGLLAPHRPKEPAWFLATVGVSPDHQGKGLGSAVVLPGVEAAERAGVPAFLETSAPRNLPFYERLGFTVTADVEVPEGPRTWCMTRKPGA",NFAT-GFP ASSAY Positive Cell lines,[1]; coculture with SKOV3 cells,SKOV3 (+)
"080816-G03 (protein, Polynucleotide encoding a Synthetic Immune Receptor (SIR)) MALPVTALLLPLALLLHAARPLEGKPIPNPLLGLDSTGSGEDLKNVFPPEVAVFEPSKAEIAHTQKATLVCLATGFYPDHVELSWWVNGKEVHSGVCTDPQPLKEQPALNDSRYCLSSRLRVSATFWQNPRNHFRCQVQFYGLSENDEWTQDRAKPVTQIVSAEAWGRADCGITSASYHQGVLSATILYEILLGKATLYAVLVSALVLMAMVKRKDSRGRAKRSGSGATNFSLLKQAGDVEENPGPTSTMALPVTALLLPLALLLHAARPDIVMTQSQKFMSTSVGDRVSIICKASQNVGTFVAWYQQKPGQSPKLLVYSASNRYTGVPDRFTGSGSGTDFTLTINNMQSEDLADYFCRQYSSYPYTFGGGTKLEIKGGGGSGGGGSGGGGSEVQLQQSGPELVKPGASMKISCKASGYSFSAYTMNWVKQSHGKNLEWIGLINPYNGGTNYNQEFEGKATLTVNKSSNTAFMELLSLTSDDSAVYYCARRDWDYFDYWGQGTTLTVSSTREQKLISEEDLGSGTPFPSLAPPIMLLVDGKQQMVVVCLVLDVAPPGLDSPIWFSAGNGSALDAFTYGPSPATDGTWTNLAHLSLPSEELASWEPLVCHTGPGAEGHSRSTQPMHLSGEASTARTCPQEPLRGTPGGALWLGVLRLLLFKLLLFDLLLTCSCLCDPAGPLPSPATTTRLRALGSHRLHPATETGGREATSSPRPQPRDRRWGDTPPGRKPGSPVRAKRSGSGVKQTLNFDLLKLAGDVESNPGPSRSRGHMTEYKPTVRLATRDDVPRAVRTLAAAFADYPATRHTVDPDRHIERVTELQELFLTRVGLDIGKVWVADDGAAVAVWTTPESVEAGAVFAEIGPRMAELSGSRLAAQQQMEGLLAPHRPKEPAWFLATVGVSPDHQGKGLGSAVVLPGVEAAERAGVPAFLETSAPRNLPFYERLGFTVTADVEVPEGPRTWCMTRKPGA",NFAT-GFP ASSAY Positive Cell lines,[1]; coculture with TT cells,TT (+/−)
"102116-A05 (protein, Synthetic Immune Receptor (SIR)) MRLPAQLLGLLMLWVSGSSGDVVMTQSPLSLPVTPGAPASISCRSSQSIVHSNGNTYLEWYLQKPGQSPKLLIYKVSNRFSGVPDRFSGSGSGTDFTLRISRVEAEDVGIYYCFQGSHVPPTFGPGTKLEIKLEEQKLISEEDLGSGEDLKNVFPPEVAVFEPSKAEIAHTQKATLVCLATGFYPDHVELSWWVNGKEVHSGVCTDPQPLKEQPALNDSRYCLSSRLRVSATFWQNPRNHFRCQVQFYGLSENDEWTQDRAKPVTQIVSAEAWGRADCGITSASYHQGVLSATILYEILLGKATLYAVLVSALVLMAMVKRKDSRGRAKRSGSGATNFSLLKQAGDVEENPGPTSMDWIWRILFLVGAATGAHSFEEVQLVESGGGLVQPGGSLRLSCSASGFTFSSFGMHWVRQAPGKGLEWVAYISSGSSTIYYGDTVKGRFTISRDNAKNSLFLQMSSLRAEDTAVYYCAREGGYYYGRSYYTMDYWGQGTTVTVSTREQKLISEEDLGSGIQNPDPAVYQLRDSKSSDKSVCLFTDFDSQTNVSQSKDSDVYITDKCVLDMRSMDFKSNSAVAWSNKSDFACANAFNNSIIPEDTFFPSSDVPCDVKLVEKSFETDTNLNFQNLSVIGFRILLLKVAGFNLLMTLRLWSSRAKRSGSGVKQTLNFDLLKLAGDVESNPGPSRGHMTEYKPTVRLATRDDVPRAVRTLAAAFADYPATRHTVDPDRHIERVTELQELFLTRVGLDIGKVWVADDGAAVAVWTTPESVEAGAVFAEIGPRMAELSGSRLAAQQQMEGLLAPHRPKEPAWFLATVGVSPDHQGKGLGSAVVLPGVEAAERAGVPAFLETSAPRNLPFYERLGFTVTADVEVPEGPRTWCMTRKPGA",NFAT-GFP ASSAY Positive Cell lines: RAJI,"[1]; SIR-expressing Jurkat-NFAT-GFP cells cocultured with RAJI, relative % GFP positive cells","RAJI (+/−), U266"
same,NFAT-GFP ASSAY Positive Cell lines: U266,"[1]; SIR-expressing Jurkat-NFAT-GFP cells cocultured with U266, relative % GFP positive cells",(+/−)
"1038 (protein, Synthetic polynucleotide encoding a SIR) MALPVTALLLPLALLLHAARPEIVLTQSPATLSLSPGERATLSCSASSSVSYMHWYQQKPGQAPRLLIYDTSKLASGIPARFSGSGSGTDFTLTISSLEPEDVAVYYCFQGSVYPFTFGQGTKLEIKRLEGKPIPNPLLGLDSTGSGEDLKNVFPPEVAVFEPSEAEISHTQKATLVCLATGFYPDHVELSWWVNGKEVHSGVSTDPQPLKEQPALNDSRYCLSSRLRVSATFWQNPRNHFRCQVQFYGLSENDEWTQDRAKPVTQIVSAEAWGRADCGFTSESYQQGVLSATILYEILLGKATLYAVLVSALVLMAMVKRKDSRGRAKRSGSGATNFSLLKQAGDVEENPGPTSMDWIWRILFLVGAATGAHSFEQVQLQESGPGLVKPSQTLSLTCTVSGGSISTSGMGVGWIRQHPGKGLEWIGHIWWDDDKRYNPALKSRVTISVDTSKNQFSLKLSSVTAADTAVYYCARMELWSYYFDYWGQGTLVTVSSTREQKLISEEDGSGIQNPDPAVYQLRDSKSSDKSVCLFTDFDSQTNVSQSKDSDVYITDKTVLDMRSMDFKSNSAVAWSNKSDFACANAFNNSIIPEDTFFPSPESSCDVKLVEKSFETDTNLNFQNLSVIGFRILLLKVAGFNLLMTLRLWSSRAKRSGSGVKQTLNFDLLKLAGDVESNPGPSRGHMTEYKPTVRLATRDDVPRAVRTLAAAFADYPATRHTVDPDRHIERVTELQELFLTRVGLDIGKVWVADDGAAVAVWTTPESVEAGAVFAEIGPRMAELSGSRLAAQQQMEGLLAPHRPKEPAWFLATVGVSPDHQGKGLGSAVVLPGVEAAERAGVPAFLETSAPRNLPFYERLGFTVTADVEVPEGPRTWCMTRKPGA",NFAT-GFP (%),RAJI cells,4.49%
10815 (protein) MALPVTALLLPLALLLHAARPDIQMTQSPSSLSASVGDRVTITCKASDHINNWLAWYQQKPGQAPKLLIYGATTLETGVPSRFSGSGSGTDYTLTISSLQPEDFATYYCQQSWNTPWTFGQGTKLEIKRLEIQNPDPAVYQLRDSKSSDKSVCLFTDFDSQTNVSQSKDSDVYITDKCVLDMRSMDFKSNSAVAWSNKSDFACANAFNNSIIPEDTFFPSSDVPCDVKLVEKSFETDTNLNFQNLSVIGFRILLLKVAGFNLLMTLRLWSSRAKRSGSGVKQTLNFDLLKLAGDVESNPGPTSMDWIWRILFLVGAATGAHSFEQVQLQQPGAELVKPGASVKMSCKASGYAFSSYWINWMKQKPGQGLEWIGQIYPGDGDTNYNGKFKGRATLTADTSSSTAYMQLSSLTSEDSAVYFCARSITTVVGCAMDYWGQGTSVTVSSTREDLKNVFPPEVAVFEPSKAEIAHTQKATLVCLATGFYPDHVELSWWVNGKEVHSGVCTDPQPLKEQPALNDSRYCLSSRLRVSATFWQNPRNHFRCQVQFYGLSENDEWTQDRAKPVTQIVSAEAWGRADCGITSASYHQGVLSATILYEILLGKATLYAVLVSALVLMAMVKRKDSRGRAKRSGSGATNFSLLKQAGDVEENPGPSRGHMTEYKPTVRLATRDDVPRAVRTLAAAFADYPATRHTVDPDRHIERVTELQELFLTRVGLDIGKVWVADDGAAVAVWTTPESVEAGAVFAEIGPRMAELSGSRLAAQQQMEGLLAPHRPKEPAWFLATVGVSPDHQGKGLGSAVVLPGVEAAERAGVPAFLETSAPRNLPFYERLGFTVTADVEVPEGPRTWCMTRKPGA,NFAT-GFP (%),RAJI cells,52.36%
